Test results as given in the supplement of paper PMC7125110.
± gives the standard error. Fewer inactive variants are shown than the library holds.

B1: glmS ribozyme (parent)
chain: AUAAAAGCGCCAGAACUACAGAAAUGUAGUUGACGAGGAGGAGGUUUAUCGAAUUUUCGGCGGAUGCCUCCAAA

Variants of: B1
Experiment: self-cleavage kobs at 640 uM GlcN6P; higher = faster cleavage; RNA array
Details: with glucosamine-6-phosphate
Procedure, shortened: (§1)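 E. coli RNA polymerase transcribed barcoded ribozyme variants in situ on sequenced MiSeq chips, which were tracked via a hybridised Cy3 probe at 37 °C. Tiles were imaged over ~14 h after glucosamine-6-phosphate (40 μM to 10 mM) in HEPES/KCl/Mg(OAc)2 buffer was flowed in. Normalised per-tile medians were fit to one- or two-exponential decays for kobs, and kcat and KM came from weighted Michaelis–Menten fits.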

Row | Variant | self-cleavage kobs at 640 uM GlcN6P [s⁻¹]
1 | AUAAAAGCGCCAGAGCUACAGAAAUGUAGUUGACGAGGAGGAGGAUUAUCGAGUUUUCGGCGGAUGCCUCCAAA [A15G U45A A53G] | 0.0131 ± 0.0027
2 | AUAAAAGCGCCAGAACUACAGAAAUGUAGUUGACGCAGAGGAGGUUUAUCGAAUUUUCGGCGGGUGCCUCCAAA [A36C G37A A64G] | < 1e-05
3 | AUAAAAGCGCCAGUACUACAGAAAUGUAGUUGACGAGAAGGAGGUUUAUCGAGUUUUCGGCGGAUGCCUCCAAA [A14U G38A A53G] | < 1e-05
4 | AUAAAAGCGCCCGAACUACAGAAAUGUAGUUGACAAGGAGGAGGUUUAUCGAAUUUUCGGCGGAUGCCUUCAAA [A12C G35A C70U] | < 1e-05
5 | AUAAAAGCGCCAGAACUACAGAAAUGUAGUUGACGGGGCGGAGGUUUAUCGUAUUUACGGCGGAUGCCUCCAAA [A36G A39C A52U U57A] | < 1e-05
6 | AUAAAAGCGCCAGAAAUACAGAAAUGUAGUUGACGUGGAGGGGGUUUGUCUAAGUUUCGGCGGAUGCCUCCAAA [C16A A36U A42G A48G G51U U54G] | < 1e-05
7 | AUAAAAGCGCCAGAACUACAGAAAUGUAGUUGACGAGGAGGAGGUUUAUAUAAUUUUCGGCGGAUGCCUCCAAA [C50A G51U] | < 1e-05
8 | AUAAAAGCGCCAGAACUACAGAAAUGUAUUUGAUGAGGAGGAGGUUUAUGGAAUUUUCGGCGGAUGCCUUCAAA [G29U C34U C50G C70U] | 0.000136 ± 2.9e-05
9 | AUAAAAGGGCUAGAUCUACAGAAAUGUAGUUGACGAGGAGGAGGUUUAUCGAAUUUGCGGCGGAUGCCUCCAAA [C8G C11U A15U U57G] | < 1e-05
10 | AUAAAAGCGAGAGAACUACAGAAAUGUAGUUGACCAGGAGGAGCUUUAUCGAAUUUUCGGCGGAUGCCUCCAAA [C10A C11G G35C G44C] | < 1e-05
11 | AUAAAAGCGCCAGAACUACAGAAAUGUAGUUGACGAGGAGGAGGUUUAUGGACAUUUCGGCGGAUGCCACCAAA [C50G A53C U54A U69A] | 0.000691 ± 0.00026
12 | AUAAAAGCGCCAGAACUACAGAAAUGUAGUUGACAAGGAGGAGGUCUAUCGAAUUUUCGGCGGAUACCUCCAAA [G35A U46C G66A] | < 1e-05
13 | AUAAAAGCGCCAGAACUACAGAAAUGUAGUUGACGAGGAAGAGGAUUAUCGAAUUUUCGGCGGAUGCCUUCAAA [G40A U45A C70U] | 4.7e-05 ± 2.2e-05
14 | AUAAAAGCACCAGGACUACAGAAAUGUAGUUGACGAGUAGGAGGUUUAUCGAAUUUUCGGCGGAUGCCUCCAAA [G9A A14G G38U] | < 1e-05
15 | AUAAAAGCGCCAAAACUACAGAAAUGUAGUUGACGAGGAGGAGGUUUAUCGCAUUUUGGGCGGAUGCCGCCAAA [G13A A52C C58G U69G] | 4.44e-05 ± 2e-05
16 | AUAAAAGCGCCCGAACUACAGAAAUGUACUUGACGAGGAGGCGGUUUAUCGAAUUUUCGGCGGAUGCCUCCAAA [A12C G29C A42C] | < 1e-05
17 | AUAAAAGCUCCAGAACUACAGAAAUGUAGUUGACGAGGAGGAGGUUUAGCGCAUUUUCGGCGGCUGCCUCCAAA [G9U U49G A52C A64C] | < 1e-05
18 | AUAAAAGCGCCAGAACUACAGAAAUGUAGUUGACCAUGAGGAGGUUUAUCGAAUUUUCGGCGGGUGCUUCCAAA [G35C G37U A64G C68U] | < 1e-05
19 | AUAAAAGCGCCAGAACUACAGAAAUGUAGUCGACGAGUAGUAGGUUUAUCGAAUUUUCGGCGCAUGCCUCCAAA [U31C G38U G41U G63C] | < 1e-05
20 | AUAAAAGCGCCAGAACUACAGAAAUGUAGUUGACGAGGUGGGGGUUUAUCGAAUUUUCGGCGGAGGCCUCCAAA [A39U A42G U65G] | 0.000684 ± 0.00016
21 | AUAAAAGCGCCAGACCUACAGAAAUGUAGUUGACGACGAGGAGGUUUAUCGAAUUUUCGGCGGAUGCCUCCAAA [A15C G37C] | < 1e-05
22 | AUAAAAGCGCCACAACUACAGAAAUGUAGUUGACGAGGAGGUGGUUUAUCGAAUUUACGGCGCAUGCCUCCAAA [G13C A42U U57A G63C] | < 1e-05
23 | AUAAAAGUGCCAGCACUACAGAAAUGUAGUUAACGAGGAGGAGGUUUAUCGAAUUUUCGGCGGAUGCCUCCAAA [C8U A14C G32A] | < 1e-05
24 | AUAAAAGCGCCAGAACUACAGAAAUGUAGACAACGAGGAGGAGGUUUAUCGAAUUUUCGGCGGAUGCCUCCAAA [U30A U31C G32A] | 6.3e-05 ± 1.6e-05
25 | AUAAAAGCGCCAGAACUACAGAAAUGUAGUUGACCAGGAGGAGGUUUGUCGAUUUUUCGGCGGAUGCCCCCAAA [G35C A48G A53U U69C] | < 1e-05

Variants of: B1
Experiment: self-cleavage kobs at 2500 uM GlcN6P; higher = faster cleavage; RNA array
Details: with glucosamine-6-phosphate
Procedure, shortened: as §1

Row | Variant | self-cleavage kobs at 2500 uM GlcN6P [s⁻¹]
26 | AUAAAAGCGCCCGAACUACAGAAAUGUAGUUGACAAGGAGGAGGUUUAUCGAAUUUUCGGCGGAUGCCUUCAAA [A12C G35A C70U] | < 1e-05
27 | AUAAAAGCGCCAGAAAUACAGAAAUGUAGUUGACGUGGAGGGGGUUUGUCUAAGUUUCGGCGGAUGCCUCCAAA [C16A A36U A42G A48G G51U U54G] | < 1e-05
28 | AUAAAAGCGCCAGAACUACAGAAAUGUAUUUGAUGAGGAGGAGGUUUAUGGAAUUUUCGGCGGAUGCCUUCAAA [G29U C34U C50G C70U] | 8.93e-05 ± 2.5e-05
29 | AUAAAAGCGAGAGAACUACAGAAAUGUAGUUGACCAGGAGGAGCUUUAUCGAAUUUUCGGCGGAUGCCUCCAAA [C10A C11G G35C G44C] | < 1e-05
30 | AUAAAAGCGCCAGAACUACAGAAAUGUAGUUGACGAGGAGGAGGUUUAUGGACAUUUCGGCGGAUGCCACCAAA [C50G A53C U54A U69A] | 0.000283 ± 0.00011
31 | AUAAAAGCGCCAGAACUACAGAAAUGUAGUUGACGAGGAAGAGGAUUAUCGAAUUUUCGGCGGAUGCCUUCAAA [G40A U45A C70U] | 7.49e-05 ± 2.1e-05
32 | AUAAAAGCGCCACAACUACAGAAAUGUAGUUGACGAGGAGGUGGUUUAUCGAAUUUACGGCGCAUGCCUCCAAA [G13C A42U U57A G63C] | < 1e-05
33 | AUAAAAGUGCCAGCACUACAGAAAUGUAGUUAACGAGGAGGAGGUUUAUCGAAUUUUCGGCGGAUGCCUCCAAA [C8U A14C G32A] | < 1e-05
34 | AUAAAAGCGCCAGAACUACAGAAAUGUAGACAACGAGGAGGAGGUUUAUCGAAUUUUCGGCGGAUGCCUCCAAA [U30A U31C G32A] | 0.000298 ± 5.8e-05

Variants of: B1
Experiment: self-cleavage kobs at 10000 uM GlcN6P; higher = faster cleavage; RNA array
Details: with glucosamine-6-phosphate
Procedure, shortened: as §1

Row | Variant | self-cleavage kobs at 10000 uM GlcN6P [s⁻¹]
35 | AUAAAAGCGCCAGAACUACAGAAAUGUAGUUGACGAGGAGGAGGUUUAUAUAAUUUUCGGCGGAUGCCUCCAAA [C50A G51U] | < 1e-05
36 | AUAAAAGCACCAGGACUACAGAAAUGUAGUUGACGAGUAGGAGGUUUAUCGAAUUUUCGGCGGAUGCCUCCAAA [G9A A14G G38U] | < 1e-05
